# Laboratory results as given in paper PMC5906670, “Structural basis of epilepsy-related ligand–receptor complex LGI1–ADAM22” (Nature Communications, 2018).
# B1: LGI1 (wild type, pull-down with ADAM22/23 ECD-FLAG) [human] / ADAM22 ECD-FLAG [human] (parent complex)
# chain 1: KKPAKPKCPAVCTCTKDNALCENARSIPRTVPPDVISLSFVRSGFTEISEGSFLFTPSLQLLLFTSNSFDVISDDAFIGLPHLEYLFIENNNIKSISRHTFRGLKSLIHLSLANNNLQTLPKDIFKGLDSLTNVDLRGNSFNCDCKLKWLVEWLGHTNATVEDIYCEGPPEYKKRKINSLSSKDFDCIITEFAKSQDLPYQSLSIDTFSYLNDEYVVIAQPFTGKCIFLEWDHVEKTFRNYDNITGTSTVVCKPIVIETQLYVIVAQLFGGSHIYKRDSFANKFIKIQDIEILKIRKPNDIETFKIENNWYFVVADSSKAGFTTIYKWNGNGFYSHQSLHAWYRDTDVEYLEIVRTPQTLRTPHLILSSSSQRPVIYQWNKATQLFTNQTDIPNMEDVYAVKHFSVKGDVYICLTRFIGDSKVMKWGGSSFQDIQRMPSRGSMVFQPLQINNYQYAILGSDYSFTQVYNWDAEKAKFVKFQELNVQAPRSFTHVSINKRNFLFASSFKGNTQIYKHVIVDLSA
# chain 2: SKRQLRRYPRNVEEETKYIELMIVNDHLMFKKHRLSVVHTNTYAKSVVNMADLIYKDQLKTRIVLVAMETWATDNKFAISENPLITLREFMKYRRDFIKEKSDAVHLFSGSQFESSRSGAAYIGGICSLLKGGGVNEFGKTDLMAVTLAQSLAHNIGIISDKRKLASGECKCEDTWSGCIMGDTGYYLPKKFTQCNIEEYHDFLNSGGGACLFNKPSKLLDPPECGNGFIETGEECDCGTPAECVLEGAECCKKCTLTQDSQCSDGLCCKKCKFQPMGTVCREAVNDCDIRETCSGNSSQCAPNIHKMDGYSCDGVQGICFGGRCKTRDRQCKYIWGQKVTASDKYCYEKLNIEGTEKGNCGKDKDTWIQCNKRDVLCGYLLCTNIGNIPRLGELDGEITSTLVVQQGRTLNCSGGHVKLEEDVDLGYVEDGTPCGPQMMCLEHRCLPVASFNFSTCLSSKEGTICSGNGVCSNELKCVCNRHWIGSDCNTYFPHNDDAKTGITLSG
# Variants of: B1
# Assay: pull-down; anti-FLAG antibody agarose; proteins secreted from HEK293T cells; n = 4 independent experiments; read off a plot
row,Variant,percent of parent
1,chain 1 KKPAKPKCPAVCTCTKDNALCENARSIPRTVPPDVISLSFVRSGFTEISEGSFLFTPSLQLLLFTSNSFDVISDDAFIGLPHLEYLFIENNNIKSISRHTFRGLKSLIHLSLANNNLQTLPKDIFKGLDSLTNVDLRGNSFNCDCKLKWLVEWLGHTNATVEDIYCEGPPEYKKRKINSLSSKDFDCIITEFAKSQDLPYQSLSIDTFSYLNDEYVVIAQPFTGKCIFLEWDHVEKTFRNYDNITGTSTVVCKPIVIETQLYVIVAQAFGGSHIYKRDSFANKFIKIQDIEILKIRKPNDIETFKIENNWYFVVADSSKAGFTTIYKWNGNGFYSHQSLHAWYRDTDVEYLEIVRTPQTLRTPHLILSSSSQRPVIYQWNKATQLFTNQTDIPNMEDVYAVKHFSVKGDVYICLTRFIGDSKVMKWGGSSFQDIQRMPSRGSMVFQPLQINNYQYAILGSDYSFTQVYNWDAEKAKFVKFQELNVQAPRSFTHVSINKRNFLFASSFKGNTQIYKHVIVDLSA [chain 1 L268A],~8 % of WT
2,chain 1 KKPAKPKCPAVCTCTKDNALCENARSIPRTVPPDVISLSFVRSGFTEISEGSFLFTPSLQLLLFTSNSFDVISDDAFIGLPHLEYLFIENNNIKSISRHTFRGLKSLIHLSLANNNLQTLPKDIFKGLDSLTNVDLRGNSFNCDCKLKWLVEWLGHTNATVEDIYCEGPPEYKKRKINSLSSKDFDCIITEFAKSQDLPYQSLSIDTFSYLNDEYVVIAQPFTGKCIFLEWDHVEKTFRNYDNITGTSTVVCKPIVIETQLYVIVAQLFGGSHIYKRDSFANKFIKIQDIEILKIRKPNDIETFKIENNWYFVVADSSKAGFTTIYKWNGNGFYSHQSLHAWYADTDVEYLEIVRTPQTLRTPHLILSSSSQRPVIYQWNKATQLFTNQTDIPNMEDVYAVKHFSVKGDVYICLTRFIGDSKVMKWGGSSFQDIQRMPSRGSMVFQPLQINNYQYAILGSDYSFTQVYNWDAEKAKFVKFQELNVQAPRSFTHVSINKRNFLFASSFKGNTQIYKHVIVDLSA [chain 1 R344A],~33 % of WT
3,chain 1 KKPAKPKCPAVCTCTKDNALCENARSIPRTVPPDVISLSFVRSGFTEISEGSFLFTPSLQLLLFTSNSFDVISDDAFIGLPHLEYLFIENNNIKSISRHTFRGLKSLIHLSLANNNLQTLPKDIFKGLDSLTNVDLRGNSFNCDCKLKWLVEWLGHTNATVEDIYCEGPPEYKKRKINSLSSKDFDCIITEFAKSQDLPYQSLSIDTFSYLNDEYVVIAQPFTGKCIFLEWDHVEKTFRNYDNITGTSTVVCKPIVIETQLYVIVAQLFGGSHIYKRDSFANKFIKIQDIEILKIAKPNDIETFKIENNWYFVVADSSKAGFTTIYKWNGNGFYSHQSLHAWYRDTDVEYLEIVRTPQTLRTPHLILSSSSQRPVIYQWNKATQLFTNQTDIPNMEDVYAVKHFSVKGDVYICLTRFIGDSKVMKWGGSSFQDIQRMPSRGSMVFQPLQINNYQYAILGSDYSFTQVYNWDAEKAKFVKFQELNVQAPRSFTHVSINKRNFLFASSFKGNTQIYKHVIVDLSA [chain 1 R296A],~85 % of WT
4,chain 1 KKPAKPKCPAVCTCTKDNALCENARSIPRTVPPDVISLSFVRSGFTEISEGSFLFTPSLQLLLFTSNSFDVISDDAFIGLPHLEYLFIENNNIKSISRHTFRGLKSLIHLSLANNNLQTLPKDIFKGLDSLTNVDLRGNSFNCDCKLKWLVEWLGHTNATVEDIYCEGPPEYKKRKINSLSSKDFDCIITEFAKSQDLPYQSLSIDTFSYLNDEYVVIAQPATGKCIFLEWDHVEKTFRNYDNITGTSTVVCKPIVIETQLYVIVAQLFGGSHIYKRDSFANKFIKIQDIEILKIRKPNDIETFKIENNWYFVVADSSKAGFTTIYKWNGNGFYSHQSLHAWYRDTDVEYLEIVRTPQTLRTPHLILSSSSQRPVIYQWNKATQLFTNQTDIPNMEDVYAVKHFSVKGDVYICLTRFIGDSKVMKWGGSSFQDIQRMPSRGSMVFQPLQINNYQYAILGSDYSFTQVYNWDAEKAKFVKFQELNVQAPRSFTHVSINKRNFLFASSFKGNTQIYKHVIVDLSA [chain 1 F222A],~37 % of WT

# Continued, values first:
row,percent of parent,Variant
1,~64 % of WT,chain 1 KKPAKPKCPAVCTCTKDNALCENARSIPRTVPPDVISLSFVRSGFTEISEGSFLFTPSLQLLLFTSNSFDVISDDAFIGLPHLEYLFIENNNIKSISRHTFRGLKSLIHLSLANNNLQTLPKDIFKGLDSLTNVDLRGNSFNCDCKLKWLVEWLGHTNATVEDIYCEGPPEYKKRKINSLSSKDFDCIITEFAKSQDLPYQSLSIDTFSYLNDEYVVIAQPFTGKCIFLEWDHVEKTFRNYDNITGTSTVVCKPIVIETQLYVIVAQLFGGSHIYKRDSFANKFIKIQDIEILKIRAPNDIETFKIENNWYFVVADSSKAGFTTIYKWNGNGFYSHQSLHAWYRDTDVEYLEIVRTPQTLRTPHLILSSSSQRPVIYQWNKATQLFTNQTDIPNMEDVYAVKHFSVKGDVYICLTRFIGDSKVMKWGGSSFQDIQRMPSRGSMVFQPLQINNYQYAILGSDYSFTQVYNWDAEKAKFVKFQELNVQAPRSFTHVSINKRNFLFASSFKGNTQIYKHVIVDLSA [chain 1 K297A]
2,~9 % of WT,chain 1 KKPAKPKCPAVCTCTKDNALCENARSIPRTVPPDVISLSFVRSGFTEISEGSFLFTPSLQLLLFTSNSFDVISDDAFIGLPHLEYLFIENNNIKSISRHTFRGLKSLIHLSLANNNLQTLPKDIFKGLDSLTNVDLRGNSFNCDCKLKWLVEWLGHTNATVEDIYCEGPPEYKKRKINSLSSKDFDCIITEFAKSQDLPYQSLSIDTFSYLNDEYVVIAQPFTGKCIFLEWDHVEKTFRNYDNITGTSTVVCKPIVIETQLYVIVAQLFGGSHIYKRDSFANKFIKIQDIEILKIRKPNDIETFKIENNWYFVVADSSKAGFTTIYKWNGNGFYSHQSLHAWYRDTDVEYLEIVRTPQTLRTPHLILSSSSQRPVIYQWNKATQLFTNQTDIPNMEDVYAVKHFSVKGDVYICLTRFIGDSKVMKWGGSSFQDIQRMPSRGSAVFQPLQINNYQYAILGSDYSFTQVYNWDAEKAKFVKFQELNVQAPRSFTHVSINKRNFLFASSFKGNTQIYKHVIVDLSA [chain 1 M443A]
